One substance from patent US20020045741A1 can be followed below.

The assay concerns the target CHO derived N' FLAG-mNR6 (murine NR6 with an N-terminal FLAG sequence) (mouse) (UniProt Q9JM58). Briefly: BiaCore biosensor, M2 on the sensorchip; concentrated CHO conditioned medium after M2 affinity column.
Chain of UniProt Q9JM58 (Q9JM58 other isoform, or with tags, fused parts or gaps limits assumed): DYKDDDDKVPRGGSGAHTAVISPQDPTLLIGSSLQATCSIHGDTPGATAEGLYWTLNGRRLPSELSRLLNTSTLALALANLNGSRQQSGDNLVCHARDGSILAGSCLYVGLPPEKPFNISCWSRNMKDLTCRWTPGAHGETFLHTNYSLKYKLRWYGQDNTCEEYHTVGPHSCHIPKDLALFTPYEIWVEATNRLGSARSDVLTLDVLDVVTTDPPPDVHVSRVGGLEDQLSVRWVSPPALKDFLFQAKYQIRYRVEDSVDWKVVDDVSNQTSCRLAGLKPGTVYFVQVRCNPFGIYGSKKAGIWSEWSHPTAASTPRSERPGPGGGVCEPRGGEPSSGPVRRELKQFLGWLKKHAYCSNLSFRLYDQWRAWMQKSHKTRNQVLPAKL

On to “anti FLAG peptide M2 antibody (Kodak Eastman, USA)”, for which the M2 binding remaining in the unbound fraction after M2 affinity resin came to 20%.
